# Where no end group is shown, it is not given here. [ ]: non-standard residue; d: D form. Aib = CC(C)(N)C(=O)O
# T1: human glucose-dependent insulinotropic polypeptide receptor (human, UniProt P48546 22-466)
# T1 sequence (looked up): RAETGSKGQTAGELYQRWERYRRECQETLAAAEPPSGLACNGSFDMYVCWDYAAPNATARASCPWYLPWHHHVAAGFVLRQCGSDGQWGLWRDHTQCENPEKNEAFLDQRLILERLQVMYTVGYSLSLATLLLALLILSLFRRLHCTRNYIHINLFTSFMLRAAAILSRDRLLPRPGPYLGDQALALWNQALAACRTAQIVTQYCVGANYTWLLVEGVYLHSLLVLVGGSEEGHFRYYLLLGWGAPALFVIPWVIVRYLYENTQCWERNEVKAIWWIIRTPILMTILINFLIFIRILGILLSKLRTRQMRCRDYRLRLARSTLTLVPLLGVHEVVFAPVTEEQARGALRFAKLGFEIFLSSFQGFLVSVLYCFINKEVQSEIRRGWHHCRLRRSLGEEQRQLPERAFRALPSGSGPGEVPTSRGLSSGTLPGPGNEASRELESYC
# B1: Compound No. 28 (peptide)
# peptide: H[Aib]HGTFTSDYSIYLDKQAA[Aib]EFVQWLLEGGPSSGAPPPS-NH2
# modifications: not fully specified (residue 16); printed as H-Aib-HGTFTSDYSIYLD-K[(2S)-2-amino-6-[[(2S)-2-amino-6-[[(4S)-4-carboxy-4-(19-carboxynonadecanoylamino)butanoyl]amino]hexanoyl]amino]hexanoyl]-QAA-Aib-EFVQWLLEGGPSSGAPPPS-NH2
# B2: Compound No. 19 (peptide)
# peptide: H[Aib]QGTFTSDYSIYLEKQAA[Aib]EFVQWLLEGGPSSGAPPPS-NH2
# modifications: not fully specified (residue 16); printed as H-Aib-QGTFTSDYSIYLE-K[(2S)-2-amino-6-[[(2S)-2-amino-6-[[(4S)-4-carboxy-4-(19-carboxynonadecanoylamino)butanoyl]amino]hexanoyl]amino]hexanoyl]-QAA-Aib-EFVQWLLEGGPSSGAPPPS-NH2
# B3: Compound No. 27 (peptide)
# peptide: H[Aib]HGTFTSDYSIYLEKQAAEEFVQWLLEGGPSSGAPPPS-NH2
# modifications: not fully specified (residue 16); printed as H-Aib-HGTFTSDYSIYLE-K[(2S)-2-amino-6-[[(2S)-2-amino-6-[[(4S)-4-carboxy-4-(19-carboxynonadecanoylamino)butanoyl]amino]hexanoyl]amino]hexanoyl]-QAAEEFVQWLLEGGPSSGAPPPS-NH2
# B4: Compound No. 20 (peptide)
# peptide: Y[Aib]QGTFTSDYSIYLEKQAAQEFVQWLLEGGPSSGAPPPS-NH2
# modifications: not fully specified (residue 16); printed as Y-Aib-QGTFTSDYSIYLE-K[2-[2-[2-[[2-[2-[2-[[(4S)-4-carboxy-4-[[4-[(19-carboxynonadecanoylamino)methyl]cyclohexanecarbonyl]amino]butanoyl]amino]ethoxy]ethoxy]acetyl]amino]ethoxy]ethoxy]acetyl]-QAAQEFVQWLLEGGPSSGAPPPS-NH2
# B5: Compound No. 23 (peptide)
# peptide: H[Aib]HGTFTSDYSIYLEKQAAQEFVQWLLEGGPSSGAPPPS-NH2
# modifications: not fully specified (residue 16); printed as H-Aib-HGTFTSDYSIYLE-K[(2S)-2-amino-6-[[(2S)-2-amino-6-[[(4S)-4-carboxy-4-[[4-[(19-carboxynonadecanoylamino)methyl]cyclohexanecarbonyl]amino]butanoyl]amino]hexanoyl]amino]hexanoyl]-QAAQEFVQWLLEGGPSSGAPPPS-NH2
# B6: Compound No. 25 (peptide)
# peptide: H[Aib]HGTFTSDYSYYLEKQAA[Aib]EFVQWLLEGGPSSGAPPPS-NH2
# modifications: not fully specified (residue 16); printed as H-Aib-HGTFTSDYSYYLE-K[(2S)-2-amino-6-[[(2S)-2-amino-6-[[(4S)-4-carboxy-4-[[4-[(19-carboxynonadecanoylamino)methyl]cyclohexanecarbonyl]amino]butanoyl]amino]hexanoyl]amino]hexanoyl]-QAA-Aib-EFVQWLLEGGPSSGAPPPS-NH2
# B7: Compound No. 32 (peptide)
# peptide: H[Aib]HGTFTSDYSYYLEKQAA[Aib]EFVQWLLEGGPSSGAPPPS-NH2
# modifications: not fully specified (residue 16); printed as H-Aib-HGTFTSDYSYYLE-K[(2S)-2-amino-6-[[(2S)-2-amino-6-[[(4S)-4-carboxy-4-(17-carboxyheptadecanoylamino)butanoyl]amino]hexanoyl]amino]hexanoyl]-QAA-Aib-EFVQWLLEGGPSSGAPPPS-NH2
# B8: Compound No. 24 (peptide)
# peptide: H[Aib]HGTFTSDYSIYLEKQYA[Aib]EFVQWLLEGGPSSGAPPPS-NH2
# modifications: not fully specified (residue 16); printed as H-Aib-HGTFTSDYSIYLE-K[(2S)-2-amino-6-[[(2S)-2-amino-6-[[(4S)-4-carboxy-4-(19-carboxynonadecanoylamino)butanoyl]amino]hexanoyl]amino]hexanoyl]-QYA-Aib-EFVQWLLEGGPSSGAPPPS-NH2
# B9: Compound No. 36 (peptide)
# peptide: H[Aib]HGTFTSDYSKYLEKQAA[Aib]EFVQWLLEGGPSSGAPPPS-NH2
# modifications: not fully specified (residue 16); printed as H-Aib-HGTFTSDYSKYLE-K[(2S)-2-amino-6-[[(2S)-2-amino-6-[[(4S)-4-carboxy-4-(19-carboxynonadecanoylamino)butanoyl]amino]hexanoyl]amino]hexanoyl]-QAA-Aib-EFVQWLLEGGPSSGAPPPS-NH2
# B10: Compound No. 35 (peptide)
# peptide: H[Aib]HGTFTSDYSIYLEKQKA[Aib]EFVQWLLEGGPSSGAPPPS-NH2
# modifications: not fully specified (residue 16); printed as H-Aib-HGTFTSDYSIYLE-K[(2S)-2-amino-6-[[(2S)-2-amino-6-[[(4S)-4-carboxy-4-(19-carboxynonadecanoylamino)butanoyl]amino]hexanoyl]amino]hexanoyl]-QKA-Aib-EFVQWLLEGGPSSGAPPPS-NH2
# B11: Compound No. 29 (peptide)
# peptide: H[Aib]HGTFTSDYSYYLEKQYA[Aib]EFVQWLLEGGPSSGAPPPS-NH2
# modifications: not fully specified (residue 16); printed as H-Aib-HGTFTSDYSYYLE-K[(2S)-2-amino-6-[[(2S)-2-amino-6-[[(4S)-4-carboxy-4-(19-carboxynonadecanoylamino)butanoyl]amino]hexanoyl]amino]hexanoyl]-QYA-Aib-EFVQWLLEGGPSSGAPPPS-NH2
# B12: Compound No. 22 (peptide)
# peptide: H[Aib]HGTFTSDYSIYLEKQAA[Aib]EFVQWLLEGGPSSGAPPPS-NH2
# modifications: not fully specified (residue 16); printed as H-Aib-HGTFTSDYSIYLE-K[(2S)-2-amino-6-[[(2S)-2-amino-6-[[(4S)-4-carboxy-4-(19-carboxynonadecanoylamino)butanoyl]amino]hexanoyl]amino]hexanoyl]-QAA-Aib-EFVQWLLEGGPSSGAPPPS-NH2
# B13: Compound No. 34 (peptide)
# peptide: H[Aib]HGTFTSDYSIYLEKKAA[Aib]EFVQWLLEGGPSSGAPPPS-NH2
# modifications: not fully specified (residue 16); printed as H-Aib-HGTFTSDYSIYLE-K[2-[2-[2-[[2-[2-[2-[[(4S)-4-carboxy-4-(19-carboxynonadecanoylamino)butanoyl]amino]ethoxy]ethoxy]acetyl]amino]ethoxy]ethoxy]acetyl]-KAA-Aib-EFVQWLLEGGPSSGAPPPS-NH2
# B14: Compound No. 31 (peptide)
# peptide: H[Aib]HGTFTSDYSYYLEKKAA[Aib]EFVQWLLEGGPSSGAPPPS-NH2
# modifications: not fully specified (residue 16); printed as H-Aib-HGTFTSDYSYYLE-K[(2S)-2-amino-6-[[(2S)-2-amino-6-[[(4S)-4-carboxy-4-(19-carboxynonadecanoylamino)butanoyl]amino]hexanoyl]amino]hexanoyl]-KAA-Aib-EFVQWLLEGGPSSGAPPPS-NH2
# B15: Compound No. 26 (peptide)
# peptide: H[Aib]HGTFTSDYSYYLEKQAA[Aib]EFVQWLLEGGPSSGAPPPS-NH2
# modifications: not fully specified (residue 16); printed as H-Aib-HGTFTSDYSYYLE-K[(2S)-2-amino-6-[[(2S)-2-amino-6-[[(4S)-4-carboxy-4-(19-carboxynonadecanoylamino)butanoyl]amino]hexanoyl]amino]hexanoyl]-QAA-Aib-EFVQWLLEGGPSSGAPPPS-NH2
# Biological target: T1, human glucose-dependent insulinotropic …
# Assay: cell-based or functional assay
row,Binder,hGIPR CRE Luc EC50 (pM)
1,B1,7.7
2,B2,55
3,B3,2.5
4,B4,8.1
5,B5,5.1
6,B6,6.9
7,B7,3.5
8,B8,7.7
9,B9,9.3
10,B10,13.9
11,B11,7.2
12,B12,7.1
13,B13,8.7
14,B14,9
15,B15,6.5

# Biological target: human glucagon receptor (human, UniProt P47871 26-477)
# Assay: cell-based or functional assay
# Sequence of human glucagon receptor (P47871 26-477): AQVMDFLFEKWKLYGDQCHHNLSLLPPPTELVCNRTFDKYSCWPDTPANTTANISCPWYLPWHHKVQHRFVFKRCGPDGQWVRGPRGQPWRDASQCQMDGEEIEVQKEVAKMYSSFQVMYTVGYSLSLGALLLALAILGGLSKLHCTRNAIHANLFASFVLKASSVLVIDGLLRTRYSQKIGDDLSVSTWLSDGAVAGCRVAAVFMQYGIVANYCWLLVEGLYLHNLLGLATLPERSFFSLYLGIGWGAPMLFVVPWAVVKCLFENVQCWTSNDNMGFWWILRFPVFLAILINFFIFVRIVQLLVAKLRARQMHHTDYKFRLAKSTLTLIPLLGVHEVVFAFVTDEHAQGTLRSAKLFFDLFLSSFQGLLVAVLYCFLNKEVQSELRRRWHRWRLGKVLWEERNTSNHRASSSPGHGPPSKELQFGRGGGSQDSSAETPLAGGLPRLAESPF
row,Binder,hGcgR CRE Luc EC50 (pM)
1,B1,16.7
2,B2,357
3,B3,55
4,B4,147
5,B5,18.3
6,B6,25.2
7,B7,10.3
8,B8,13.1
9,B9,11.4
10,B10,5
11,B11,9.6
12,B12,48.7
13,B13,24.7
14,B14,7.7
15,B15,13.6

# Biological target: human glucagon-like peptide 1 receptor (human, UniProt P43220 24-463)
# Assay: cell-based or functional assay
row,Binder,hGLP-1R CRE Luc EC50 (pM)
1,B1,4.5
2,B2,1.7
3,B3,0.8
4,B4,5.1
5,B5,2
6,B6,4.6
7,B7,1.6
8,B8,6.8
9,B9,1.8
10,B10,5.2
11,B11,5.8
12,B12,2
13,B13,2.6
14,B14,3
15,B15,3.1
